# Patent publication US20180155451A1 (published 2018)
# T1: FcγRIIa H (human, UniProt P12318 34-217)
# T1 construct: extracellular domain; also called FcgRIIa H; FcγRIIa type H; not shown: His tag attached to the C terminus
# T1 sequence (looked up): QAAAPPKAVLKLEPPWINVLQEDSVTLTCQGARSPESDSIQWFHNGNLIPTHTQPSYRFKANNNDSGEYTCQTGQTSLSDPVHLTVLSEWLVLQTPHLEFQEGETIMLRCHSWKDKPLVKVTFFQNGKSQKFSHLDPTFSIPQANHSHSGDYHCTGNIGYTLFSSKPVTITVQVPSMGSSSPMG
# T2: FcγRIIb extracellular domain with C-terminal His tag (human, UniProt P31994 43-217)
# T2 construct: extracellular domain; also called 2b; FcgRIIb
# T2 sequence (looked up): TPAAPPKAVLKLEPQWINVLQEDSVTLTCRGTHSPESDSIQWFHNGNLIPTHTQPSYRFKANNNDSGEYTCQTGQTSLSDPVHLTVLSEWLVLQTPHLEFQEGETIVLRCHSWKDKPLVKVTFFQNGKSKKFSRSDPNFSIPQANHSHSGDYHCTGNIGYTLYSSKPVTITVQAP
# T3: FcγRIIb (human, UniProt P31994 43-217)
# T3 construct: extracellular domain; also called FcgRIIb; 2b; not shown: His tag attached to the C terminus
# T3 sequence (looked up): T2 sequence (looked up)
# B1: GpH7-A5/GpH7-B3 variant E269_01G/GpL16-k0 (antibody, human IgG1, kappa)
# heavy 1: not shown
# heavy 2: not shown
# light: DIVMTQSPLSLPVTPGEPASISCQASESLVHSNRNTYLHWYLQKPGQSPQLLIYKVSNRFSGVPDRFSGSGSGTDFTLKISRVEAEDVGVYYCSQNTHVPPTFGQGTKVEIERTVAAPSVFIFPPSDEQLKSGTASVVCLLNNFYPREAKVQWKVDNALQSGNSQESVTEQDSKDSTYSLSSTLTLSKADYEKHKVYACEVTHQGLSSPVTKSFNRGEC
# notes: He Ab: alteration in one H chain only; also called He Ab
# B2: GpH7-A5/GpH7-B3 variant E269_02A/GpL16-k0 (antibody, human IgG1, kappa)
# heavy 1: not shown
# heavy 2: not shown
# light: B1 light
# notes: as for B1
# B3: GpH7-A5/GpH7-B3 variant E269_03V/GpL16-k0 (antibody, human IgG1, kappa)
# heavy 1: not shown
# heavy 2: not shown
# light: B1 light
# notes: as for B1
# B4: GpH7-A5/GpH7-B3 variant E269_06M/GpL16-k0 (antibody, human IgG1, kappa)
# heavy 1: not shown
# heavy 2: not shown
# light: B1 light
# notes: as for B1
# B5: GpH7-A5/GpH7-B3 variant E269_07I/GpL16-k0 (antibody, human IgG1, kappa)
# heavy 1: not shown
# heavy 2: not shown
# light: B1 light
# notes: as for B1
# B6: GpH7-A5/GpH7-B3 variant E269_08L/GpL16-k0 (antibody, human IgG1, kappa)
# heavy 1: not shown
# heavy 2: not shown
# light: B1 light
# notes: as for B1
# B7: GpH7-A5/GpH7-B3 variant E269_11K/GpL16-k0 (antibody, human IgG1, kappa)
# heavy 1: not shown
# heavy 2: not shown
# light: B1 light
# notes: as for B1
# B8: GpH7-A5/GpH7-B3 variant E269_12R/GpL16-k0 (antibody, human IgG1, kappa)
# heavy 1: not shown
# heavy 2: not shown
# light: B1 light
# notes: as for B1
# B9: GpH7-A5/GpH7-B3 variant E269_13S/GpL16-k0 (antibody, human IgG1, kappa)
# heavy 1: not shown
# heavy 2: not shown
# light: B1 light
# notes: as for B1
# B10: GpH7-A5/GpH7-B3 variant E269_16H/GpL16-k0 (antibody, human IgG1, kappa)
# heavy 1: not shown
# heavy 2: not shown
# light: B1 light
# notes: as for B1
# B11: GpH7-A5/GpH7-B3 variant E269_18N/GpL16-k0 (antibody, human IgG1, kappa)
# heavy 1: not shown
# heavy 2: not shown
# light: B1 light
# notes: as for B1
# B12: GpH7-A5/GpH7-B3 variant G236_03V/GpL16-k0 (antibody, human IgG1, kappa)
# heavy 1: not shown
# heavy 2: not shown
# light: B1 light
# notes: as for B1
# B13: GpH7-A5/GpH7-B3 variant G236_04F/GpL16-k0 (antibody, human IgG1, kappa)
# heavy 1: not shown
# heavy 2: not shown
# light: B1 light
# notes: as for B1
# B14: GpH7-A5/GpH7-B3 variant L235_12R/GpL16-k0 (antibody, human IgG1, kappa)
# heavy 1: not shown
# heavy 2: not shown
# light: B1 light
# notes: as for B1
# B15: GpH7-A5/GpH7-B3 variant L234_02A/GpL16-k0 (antibody, human IgG1, kappa)
# heavy 1: not shown
# heavy 2: not shown
# light: B1 light
# notes: Heterodimerized IgG1, mutation in the GpH7-B3 chain only; also called He Ab
# B16: GpH7-A5/GpH7-B3 variant L234_04F/GpL16-k0 (antibody, human IgG1, kappa)
# heavy 1: not shown
# heavy 2: not shown
# light: B1 light
# notes: as for B15
# B17: GpH7-A5/GpH7-B3 variant L234_05P/GpL16-k0 (antibody, human IgG1, kappa)
# heavy 1: not shown
# heavy 2: not shown
# light: B1 light
# notes: as for B15
# B18: GpH7-A5/GpH7-B3 variant L234_11K/GpL16-k0 (antibody, human IgG1, kappa)
# heavy 1: not shown
# heavy 2: not shown
# light: B1 light
# notes: as for B15
# B19: GpH7-A5/GpH7-B3 variant L234_12R/GpL16-k0 (antibody, human IgG1, kappa)
# heavy 1: not shown
# heavy 2: not shown
# light: B1 light
# notes: as for B15
# B20: GpH7-A5/GpH7-B3 variant L234_13S/GpL16-k0 (antibody, human IgG1, kappa)
# heavy 1: not shown
# heavy 2: not shown
# light: B1 light
# notes: as for B15
# B21: GpH7-A5/GpH7-B3 variant L234_14T/GpL16-k0 (antibody, human IgG1, kappa)
# heavy 1: not shown
# heavy 2: not shown
# light: B1 light
# notes: as for B15
# B22: GpH7-A5/GpH7-B3 variant L234_15Y/GpL16-k0 (antibody, human IgG1, kappa)
# heavy 1: not shown
# heavy 2: not shown
# light: B1 light
# notes: as for B15
# B23: GpH7-A5/GpH7-B3 variant L234_16H/GpL16-k0 (antibody, human IgG1, kappa)
# heavy 1: not shown
# heavy 2: not shown
# light: B1 light
# notes: as for B15
# B24: GpH7-A5/GpH7-B3 variant L234_19Q/GpL16-k0 (antibody, human IgG1, kappa)
# heavy 1: not shown
# heavy 2: not shown
# light: B1 light
# notes: as for B15
# B25: GpH7-A5/GpH7-B3 variant L235_01G/GpL16-k0 (antibody, human IgG1, kappa)
# heavy 1: not shown
# heavy 2: not shown
# light: B1 light
# notes: as for B15
# B26: GpH7-A5/GpH7-B3 variant L235_03V/GpL16-k0 (antibody, human IgG1, kappa)
# heavy 1: not shown
# heavy 2: not shown
# light: B1 light
# notes: as for B15
# B27: GpH7-A5/GpH7-B3 variant L235_11K/GpL16-k0 (antibody, human IgG1, kappa)
# heavy 1: not shown
# heavy 2: not shown
# light: B1 light
# notes: as for B15
# B28: GpH7-A5/GpH7-B3 variant L235_13S/GpL16-k0 (antibody, human IgG1, kappa)
# heavy 1: not shown
# heavy 2: not shown
# light: B1 light
# notes: as for B15
# B29: GpH7-A5/GpH7-B3 variant L235_14T/GpL16-k0 (antibody, human IgG1, kappa)
# heavy 1: not shown
# heavy 2: not shown
# light: B1 light
# notes: as for B15
# B30: GpH7-A5/GpH7-B3 variant L235_18N/GpL16-k0 (antibody, human IgG1, kappa)
# heavy 1: not shown
# heavy 2: not shown
# light: B1 light
# notes: as for B15
# B31: GpH7-A5/GpH7-B3 variant L235_19Q/GpL16-k0 (antibody, human IgG1, kappa)
# heavy 1: not shown
# heavy 2: not shown
# light: B1 light
# notes: as for B15
# B32: GpH7-A5/GpH7-B3 variant S239_11K/GpL16-k0 (antibody, human IgG1, kappa)
# heavy 1: not shown
# heavy 2: not shown
# light: B1 light
# notes: as for B15
# B33: GpH7-A5/GpH7-B3 variant S239_12R/GpL16-k0 (antibody, human IgG1, kappa)
# heavy 1: not shown
# heavy 2: not shown
# light: B1 light
# notes: as for B15
# B34: GpH7-A5/GpH7-B3 variant S239_16H/GpL16-k0 (antibody, human IgG1, kappa)
# heavy 1: not shown
# heavy 2: not shown
# light: B1 light
# notes: as for B15
# Molecular target: T4, FcγRIIIa extracellular domain with C-terminal His tag (human, UniProt P08637 17-208)
# T4 construct: extracellular domain; also called 3a; FcgRIIIa
# T4 sequence (P08637 17-208): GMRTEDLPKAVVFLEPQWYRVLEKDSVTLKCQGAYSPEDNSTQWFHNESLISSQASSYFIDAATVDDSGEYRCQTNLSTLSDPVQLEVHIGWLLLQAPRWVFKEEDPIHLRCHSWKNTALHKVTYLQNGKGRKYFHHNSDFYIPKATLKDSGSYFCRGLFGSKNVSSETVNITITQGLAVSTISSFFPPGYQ
# Experiment: SPR; He/Con_3a over He/Con_2b (FcγRIIb)
row,Binder,He_3a/2b (IIIa/IIb)
1,B1,1.21 ratio
2,B2,1.38 ratio
3,B3,1.25 ratio
4,B4,1.25 ratio
5,B5,1.27 ratio
6,B6,1.21 ratio
7,B7,2.47 ratio
8,B8,1.72 ratio
9,B9,1.31 ratio
10,B10,1.33 ratio
11,B11,1.29 ratio
12,B12,1.64 ratio
13,B13,2.21 ratio
14,B14,4.29 ratio

# Molecular target: T1, FcγRIIa H
# Experiment: ratio of He/Con_2aH to He/Con_2b (relative SPR binding to FcγRIIa H over FcγRIIb)
row,Binder,He_2aH/2b (IIaH/IIb)
1,B15,1.25
2,B16,1.2
3,B17,1.28
4,B18,2.52
5,B19,2.53
6,B20,1.36
7,B21,1.25
8,B22,1.25
9,B23,1.47
10,B24,1.31
11,B25,1.53
12,B26,1.28
13,B27,3.61
14,B28,1.37
15,B29,1.53
16,B30,1.2
17,B31,1.45
18,B32,1.94
19,B33,1.46
20,B34,1.2

# Molecular target: T4, FcγRIIIa extracellular domain with …
# Experiment: SPR, relative to GpH7-A5/GpH7-B3/GpL16-k0
# Method: (§1) The heterodimerized antibodies He Abs in which one of the H chains was introduced with an alteration were assayed for their binding activities to each activating FcγR and inhibitory FcγR according to the method described in Example 4. […] The activating FcγRs in FIGS. 26, 27, 28, and 29 are FcγRIa, FcγRIIa (R), FcγRIIa (H), and FcγRIIIa, respectively.
# (§2) Analysis of interaction between objective antibody and the FcγR was carried out using Biacore T100 (GE Healthcare). HBS-EP+ (GE Healthcare) was used as the running buffer, and the measurement temperature was set to 25° C. Chips produced by immobilizing the antigen peptide by the amine coupling method to a Series S Sencor Chip CM5 (GE Healthcare), or alternatively, chips produced by allowing preliminarily biotinylated antigen peptides to interact with and immobilize onto a Series S Sensor Chip SA (certified) (GE Healthcare) were used. Antibodies of interest were captured onto an antigen peptide-immobilized chip, and allowed to interact to each FcγR diluted with running buffer. To regenerate and repeatedly use the chip, the antibodies captured on the chip were washed off by reacting 10 mM glycine-HCl, pH 1.5.
row,Binder,He/Con_3a
1,B1,62.2 control=100
2,B2,68.7 control=100
3,B3,56.6 control=100
4,B4,58.5 control=100
5,B5,55.8 control=100
6,B6,52.1 control=100
7,B7,44 control=100
8,B8,43.2 control=100
9,B9,62.7 control=100
10,B10,51.2 control=100
11,B11,57.8 control=100
12,B12,57.7 control=100
13,B13,87 control=100
14,B14,41.2 control=100

# Molecular target: T2, FcγRIIb extracellular domain with …
# Experiment: SPR, relative to GpH7-A5/GpH7-B3/GpL16-k0
# Method: as §1, §2
row,Binder,He/Con_2b
1,B1,51.5 control=100
2,B2,49.9 control=100
3,B3,45.1 control=100
4,B4,46.7 control=100
5,B5,43.9 control=100
6,B6,42.9 control=100
7,B7,17.8 control=100
8,B8,25.2 control=100
9,B9,47.8 control=100
10,B10,38.5 control=100
11,B11,44.8 control=100
12,B12,35.3 control=100
13,B13,39.3 control=100

# Molecular target: T3, FcγRIIb
# Experiment: SPR (Biacore), antibody captured, FcγR as analyte; binding relative to GpH7-A5/GpH7-B3/GpL16-k0 = 100
row,Binder,He/Con_2b
1,B15,64.9 control = 100
2,B16,99.8 control = 100
3,B17,72.9 control = 100
4,B18,16.2 control = 100
5,B19,18.9 control = 100
6,B20,59.3 control = 100
7,B21,62.5 control = 100
8,B22,96.3 control = 100
9,B23,59.4 control = 100
10,B24,60.3 control = 100
11,B25,35.4 control = 100
12,B26,66.4 control = 100
13,B27,6.3 control = 100
14,B28,48.2 control = 100
15,B29,46.8 control = 100
16,B30,54.9 control = 100
17,B31,42.6 control = 100
18,B32,24.7 control = 100
19,B33,39.1 control = 100
20,B34,49.4 control = 100

# Molecular target: T1, FcγRIIa H
# Experiment: as above
row,Binder,He/Con_2aH
1,B15,81 control = 100
2,B16,120 control = 100
3,B17,93.5 control = 100
4,B18,40.8 control = 100
5,B19,47.7 control = 100
6,B20,80.4 control = 100
7,B21,78.1 control = 100
8,B22,120 control = 100
9,B23,87.3 control = 100
10,B24,79.2 control = 100
11,B25,54.1 control = 100
12,B26,85.3 control = 100
13,B27,22.7 control = 100
14,B28,66.1 control = 100
15,B29,71.5 control = 100
16,B30,66.1 control = 100
17,B31,62 control = 100
18,B32,48.1 control = 100
19,B33,57.1 control = 100
20,B34,59.4 control = 100
